# Reference: US8168592B2 (Amgen Inc., priority 2005, dated 2012)
# Bridge positions count the residues as written; N and C are the ends. Square brackets hold non-standard residues; d marks the D form. Ends that are not written are not given here. Peptide text beside a SMILES is read from it. Oic = O=C(O)[C@@H]1C[C@@H]2CCCC[C@@H]2N1; 1Nal = N[C@@H](Cc1cccc2ccccc12)C(=O)O; 2Nal = N[C@@H](Cc1ccc2ccccc2c1)C(=O)O; hArg = N=C(N)NCCCC[C@H](N)C(=O)O; Cit = NC(=O)NCCC[C@H](N)C(=O)O; Nle = CCCC[C@H](N)C(=O)O; PEG = not defined here
# Biological target: T1, CGRP1 receptor (Homo sapiens, UniProt O60894+Q16602)
# T1 construct: SK-N-MC cells express CRLR and RAMP1, which form CGRP1 receptor; endogenous in cells; host or cells: SK-N-MC human neuroblastoma cells
# T1 sequence (Q16602 23-461): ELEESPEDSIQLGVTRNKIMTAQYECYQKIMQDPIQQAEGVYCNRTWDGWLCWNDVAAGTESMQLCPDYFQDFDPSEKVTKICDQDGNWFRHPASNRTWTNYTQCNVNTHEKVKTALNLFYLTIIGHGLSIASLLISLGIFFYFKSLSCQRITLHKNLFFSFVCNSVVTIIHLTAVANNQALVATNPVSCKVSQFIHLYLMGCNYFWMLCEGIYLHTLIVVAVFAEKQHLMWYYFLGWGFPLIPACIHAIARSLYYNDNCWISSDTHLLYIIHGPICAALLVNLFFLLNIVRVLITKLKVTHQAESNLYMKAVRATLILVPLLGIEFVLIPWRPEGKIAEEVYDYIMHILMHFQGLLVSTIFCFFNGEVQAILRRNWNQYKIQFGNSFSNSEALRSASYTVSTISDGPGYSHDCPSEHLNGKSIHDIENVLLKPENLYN
# T1 sequence (O60894 27-148): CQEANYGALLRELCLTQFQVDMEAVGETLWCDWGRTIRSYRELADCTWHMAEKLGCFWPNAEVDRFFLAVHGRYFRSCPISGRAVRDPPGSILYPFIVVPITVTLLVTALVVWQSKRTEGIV
# Experiment: in vitro CGRP1 receptor mediated cAMP assay in SK-N-MC cells
# Type: cell-based
# Conditions: not given
# In short: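 Intracellular cAMP served as the Gs-coupled CGRP1 readout in endogenously expressing SK-N-MC cells. After a 15-minute room-temperature step in plasma-free medium, cell lysates (30 minutes, 37° C) went into a competitive ELISA with a cAMP-AP conjugate and anti-cAMP antibody for 1 hour, then a 30-minute substrate enhancer step before reading.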
row,Molecule,"antagonist activity in cAMP assay, in words"
1,SEQ ID NO:2 (CGGGGGGGVTHRLAGLLSRSGGVVKNNFVPTNVGSKAF-NH2),deleterious to potency
2,SEQ ID NO:8 (Ac-WVTHRLAGLLSRSGGVVRCNFVPTDVGPFAF-NH2),somewhat less active
3,SEQ ID NO:9 (Ac-WVTHRLAGLLSRSGGVVCNNFVPTDVGPFAF-NH2),somewhat less active
4,SEQ ID NO:14 (Ac-WVTHRLAGLLSRSGGVVC(PEG)NNFVPTDVGPFAF-NH2; reading uncertain),little effect on the antagonist activity of the parent peptide
5,SEQ ID NO:21 (WVTHXLAGLLSRSGGVVRKNFVPTDVGPFAF; CGRP peptide; MOD_RES (1)..(1): …ON; MISC_FEATURE (5)..(5): xaa=homoarginine; MOD_RES (31)..(31): AMIDATION),well tolerated
6,SEQ ID NO:22 (WVTHXLAGLLSRSGGVVRKNFVPTDVGPFAF; CGRP peptide; MOD_RES (1)..(1): …ON; MISC_FEATURE (5)..(5): xaa=homoarginine; MISC_FEATURE (19)..(19): PEGylated; MOD_RES (31)..(31): AMIDATION),retaining their CGRP1 receptor antagonist activity
7,SEQ ID NO:23 (WVTHRLAGLLSXSGGVVRKNFVPTDVGPFAF; CGRP peptide; MOD_RES (1)..(1): …ON; MISC_FEATURE (12)..(12): xaa=homoarginine; MOD_RES (31)..(31): AMIDATION),well tolerated
8,SEQ ID NO:24 (WVTHRLAGLLSXSGGVVRKNFVPTDVGPFAF; CGRP peptide; MOD_RES (1)..(1): …ON; MISC_FEATURE (12)..(12): xaa=homoarginine; MISC_FEATURE (19)..(19): PEGylated; MOD_RES (31)..(31): AMIDATION),retaining their CGRP1 receptor antagonist activity
9,SEQ ID NO:26 (WVTHXLAGLLSXSGGVVRKNFVPTDVGPFAF; CGRP peptide; MOD_RES (1)..(1): …ON; MISC_FEATURE (5)..(5): xaa=homoarginine; MISC_FEATURE (12)..(12): xaa=homoarginine; MISC_FEATURE (19)..(19): PEGylated; MOD_RES (31)..(31): AMIDATION),antagonist activity returned to the levels of the two peptides with single substitutions
10,SEQ ID NO:27 (WVTHXLAGLLSRSGGVVRKNFVPTDVGPFAF; CGRP peptide; MOD_RES (1)..(1): …ON; MISC_FEATURE (5)..(5): xaa=citrulline; MOD_RES (31)..(31): AMIDATION),well tolerated
11,SEQ ID NO:28 (WVTHXLAGLLSRSGGVVRKNFVPTDVGPFAF; CGRP peptide; MOD_RES (1)..(1): …ON; MISC_FEATURE (5)..(5): xaa=citrulline; MISC_FEATURE (19)..(19): PEGylated; MOD_RES (31)..(31): AMIDATION),relatively minor loss of in vitro antagonist activity
12,SEQ ID NO:29 (WVTHRLAGLLSXSGGVVRKNFVPTDVGPFAF; CGRP peptide; MOD_RES (1)..(1): …ON; MISC_FEATURE (12)..(12): xaa=citrulline; MOD_RES (31)..(31): AMIDATION),well tolerated
13,SEQ ID NO:30 (WVTHRLAGLLSXSGGVVRKNFVPTDVGPFAF; CGRP peptide; MOD_RES (1)..(1): …ON; MISC_FEATURE (12)..(12): xaa=citrulline; MISC_FEATURE (19)..(19): PEGylated; MOD_RES (31)..(31): AMIDATION),relatively minor loss of in vitro antagonist activity

# Same assay, conditions: Table 2C; unconjugated peptide; read-out: Peptide IC50
row,Molecule,IC50
1,CCCC[C@H](NC(=O)[C@@H](NC(=O)CNC(=O)CNC(=O)[C@H](CO)NC(=O)[C@H](CCCNC(N)=O)NC(=O)[C@H](CO)NC(=O)[C@H](CC(C)C)NC(=O)[C@H](CC(C)C)NC(=O)CNC(=O)[C@H](C)NC(=O)[C@H](CC(C)C)NC(=O)[C@H](CCCNC(N)=O)NC(=O)[C@H](Cc1c[nH]cn1)NC(=O)[C@@H](NC(=O)[C@@H](NC(=O)[C@H](Cc1c[nH]c2ccccc12)NC(C)=O)C(C)C)[C@@H](C)O)C(C)C)C(=O)N[C@@H](CCCNC(=N)N)C(=O)N[C@@H](CCCCN)C(=O)N[C@@H](CC(N)=O)C(=O)N[C@@H](Cc1ccccc1)C(=O)N[C@H](C(=O)N1CCC[C@H]1C(=O)N[C@H](C(=O)N[C@@H](CC(=O)O)C(=O)N[C@H](C(=O)NCC(=O)N1CCC[C@H]1C(=O)N[C@@H](Cc1ccccc1)C(=O)N[C@@H](C)C(=O)N[C@@H](Cc1ccccc1)C(N)=O)C(C)C)[C@@H](C)O)C(C)C [compound 940] (Ac-WVTH[Cit]LAGLLS[Cit]SGGV[Nle]RKNFVPTDVGPFAF-NH2),1.85 nM
2,CC(=O)N[C@@H](Cc1c[nH]c2ccccc12)C(=O)N[C@H](C(=O)N[C@H](C(=O)N[C@@H](Cc1c[nH]cn1)C(=O)N[C@@H](CCCCNC(=N)N)C(=O)N[C@@H](CC(C)C)C(=O)N[C@H]1CCC(=O)NCCCC[C@@H](C(=O)N[C@@H](CCCNC(N)=O)C(=O)N[C@@H](CO)C(=O)NCC(=O)NCC(=O)N[C@H](C(=O)N[C@H](C(=O)N[C@@H](CCCCNC(=N)N)C(=O)N[C@@H](CCCCN)C(=O)N[C@@H](CC(N)=O)C(=O)N[C@@H](Cc2ccccc2)C(=O)N[C@H](C(=O)N2CCC[C@H]2C(=O)N[C@H](C(=O)N[C@@H](CC(=O)O)C(=O)N[C@H](C(=O)NCC(=O)N2[C@H](C(=O)N[C@@H](Cc3ccccc3)C(=O)N[C@@H](C)C(=O)N[C@@H](Cc3ccccc3)C(N)=O)C[C@@H]3CCCC[C@@H]32)C(C)C)[C@@H](C)O)C(C)C)C(C)C)C(C)C)NC(=O)[C@H](CC(C)C)NC(=O)[C@H](CC(C)C)NC(=O)CNC1=O)[C@@H](C)O)C(C)C [compound 942] (Ac-WVTH[hArg]LEGLLK[Cit]SGGVV[hArg]KNFVPTDVG[Oic]FAF-NH2; lactam 7-11),0.83 nM
3,CC(=O)N[C@@H](Cc1c[nH]c2ccccc12)C(=O)N[C@H](C(=O)N[C@H](C(=O)N[C@@H](Cc1c[nH]cn1)C(=O)N[C@@H](CCCNC(N)=O)C(=O)N[C@@H](CC(C)C)C(=O)N[C@@H](C)C(=O)NCC(=O)N[C@H]1CCC(=O)NCCCC[C@@H](C(=O)NCC(=O)NCC(=O)N[C@H](C(=O)N[C@H](C(=O)N[C@@H](CCCCNC(=N)N)C(=O)N[C@@H](CCCCN)C(=O)N[C@@H](CC(N)=O)C(=O)N[C@@H](Cc2ccccc2)C(=O)N[C@H](C(=O)N2CCC[C@H]2C(=O)N[C@H](C(=O)N[C@@H](CC(=O)O)C(=O)N[C@H](C(=O)NCC(=O)N2[C@H](C(=O)N[C@@H](Cc3cccc4ccccc34)C(=O)N[C@@H](C)C(=O)N[C@@H](Cc3ccccc3)C(N)=O)C[C@@H]3CCCC[C@@H]32)C(C)C)[C@@H](C)O)C(C)C)C(C)C)C(C)C)NC(=O)[C@H](CCCCNC(=N)N)NC(=O)[C@H](CO)NC(=O)[C@H](CC(C)C)NC1=O)[C@@H](C)O)C(C)C [compound 944] (Ac-WVTH[Cit]LAGELS[hArg]KGGVV[hArg]KNFVPTDVG[Oic][1Nal]AF-NH2; lactam 9-13),0.85 nM
4,CC(=O)N[C@@H](Cc1c[nH]c2ccccc12)C(=O)N[C@H](C(=O)N[C@H](C(=O)N[C@@H](Cc1c[nH]cn1)C(=O)N[C@@H](CCCNC(N)=O)C(=O)N[C@@H](CC(C)C)C(=O)N[C@@H](C)C(=O)NCC(=O)N[C@@H](CC(C)C)C(=O)N[C@@H](CC(C)C)C(=O)N[C@H](CO)C(=O)N[C@@H](CCCNC(N)=O)C(=O)N[C@@H](CO)C(=O)NCC(=O)NCC(=O)N[C@H](C(=O)N[C@H](C(=O)N[C@@H](CCCCNC(=N)N)C(=O)N[C@@H](CCCCN)C(=O)N[C@@H](CC(N)=O)C(=O)N[C@@H](Cc1ccc2ccccc2c1)C(=O)N[C@H](C(=O)N1CCC[C@H]1C(=O)N[C@H](C(=O)N[C@@H](CC(=O)O)C(=O)N[C@H](C(=O)NCC(=O)N1[C@H](C(=O)N[C@@H](Cc2ccccc2)C(=O)N[C@@H](C)C(=O)N[C@@H](Cc2ccccc2)C(N)=O)C[C@@H]2CCCC[C@@H]21)C(C)C)[C@@H](C)O)C(C)C)C(C)C)C(C)C)[C@@H](C)O)C(C)C [compound 953] (Ac-WVTH[Cit]LAGLL[dS][Cit]SGGVV[hArg]KN[2Nal]VPTDVG[Oic]FAF-NH2),2.66 nM
5,Ac-WVTHQLAGLLSQSGGVVRKNFVPTDVGPFAF-NH2 [compound 857],0.53 nM
6,Ac-WVTHRLAGLLSQSGGVVRKNFVPTDVGPFAF-NH2 [compound 856],0.47 nM
7,Ac-WVTHRLAGLLSRPGGVVRKNFVPTDVGPFAF-NH2 [compound 860],1.42 nM
8,Ac-WVTHRLAGLLSRSGGVVRKNFVPTDVGSKAF-NH2 [compound 915],1.15 nM

# Same assay, conditions: Table 2D; read-out: IC50
row,Molecule,IC50
1,Ac-WVTHRLAGLLSASGGVVRCNFVPTDVGPFAF-NH2 [compound 772],2.75 nM
2,Ac-WVTHRLAGLLSRPGGVVRKNFVPTDVGPFAF-NH2 [compound 854],1.27 nM
3,Ac-WVTHRLAGLLSRSGGVCRNNFVPTDVGPFAF-NH2 [compound 820],0.36 nM
4,Ac-WVTHRLAGLLSRSGGVKRNNFVPTDVGPFAF-NH2 [compound 823],0.51 nM

# Same assay, conditions: Table 3; unconjugated CGRP peptide analogs; n = 2-4; read-out: IC50
row,Molecule,IC50
1,Ac-WVTHRLAGLLSRSGGVVCNNFVPTDVGPFAF-NH2 [compound 9],2.15 nM
2,H-CGGGGGGGVTHRLAGLLSRSGGVVKNNFVPTDVGPFAF-NH2 [compound 3],0.72 nM

# Same assay, conditions: Table 7; R11 and/or R18 stability analogs, with or without 20 kDa PEG; read-out: IC50
row,Molecule,IC50
1,Ac-WVTHRLAGLLSQSGGVVRCNFVPTDVGPFAF-NH2 [compound 35],0.37 nM

# Same assay, conditions: cAMP assay
Molecule,improved potency relative to native CGRP(8-37) (SEQ ID NO:1),loss in antagonist activity on PEGylation relative to the unconjugated parent peptide
SEQ ID NO:3 (CGGGGGGGVTHRLAGLLSRSGGVVKNNFVPTDVGPFAF-NH2),more than 6 fold,–
SEQ ID NO:4 (WVTHRLAGLLSRSGGVVKNNFVPTNVGSKAF-NH2),greater than 7 fold,–
SEQ ID NO:5 (Ac-WVTHRLAGLLSRSGGVVKNNFVPTDVGPFAF-NH2),greater than 35 fold,–
SEQ ID NO:16 (Ac-WVTHRLAGLLSRSGGVVRK(PEG)NFVPTDVGPFAF-NH2; reading uncertain),about 12 fold,three

# Same assay, conditions: unPEGylated peptides
row,Molecule,improvement in potency compared to SEQ ID NO:9
1,SEQ ID NO:8 (Ac-WVTHRLAGLLSRSGGVVRCNFVPTDVGPFAF-NH2),more than 4 fold
